Measured values taken from patent US20060160174A1 (published 2006).

Key:
[1] = target: T1, p97 antigen on human melanoma H3677 cells (human, UniProt P08582 20-709); experiment: cell-based or functional assay
T1 sequence: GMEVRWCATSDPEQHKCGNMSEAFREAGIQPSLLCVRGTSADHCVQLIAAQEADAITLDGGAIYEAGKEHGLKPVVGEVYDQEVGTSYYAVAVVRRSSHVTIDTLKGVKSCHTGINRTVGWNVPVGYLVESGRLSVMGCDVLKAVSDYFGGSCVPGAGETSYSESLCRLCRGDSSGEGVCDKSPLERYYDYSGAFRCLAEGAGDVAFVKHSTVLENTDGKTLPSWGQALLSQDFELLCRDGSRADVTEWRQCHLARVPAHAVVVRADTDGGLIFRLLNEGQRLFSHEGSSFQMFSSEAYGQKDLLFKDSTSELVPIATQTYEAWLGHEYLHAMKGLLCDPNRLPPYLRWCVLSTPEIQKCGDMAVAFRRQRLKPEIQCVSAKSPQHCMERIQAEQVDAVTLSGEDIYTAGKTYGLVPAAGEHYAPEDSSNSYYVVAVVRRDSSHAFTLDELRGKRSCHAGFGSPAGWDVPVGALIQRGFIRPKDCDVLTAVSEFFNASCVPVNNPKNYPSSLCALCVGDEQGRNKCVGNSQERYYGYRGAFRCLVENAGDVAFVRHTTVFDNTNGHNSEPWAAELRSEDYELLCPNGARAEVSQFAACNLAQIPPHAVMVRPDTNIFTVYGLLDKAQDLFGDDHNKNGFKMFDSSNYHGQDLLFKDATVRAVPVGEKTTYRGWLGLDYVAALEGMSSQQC

[2] = target: T2, soluble p97 (amino acids 20-710 of human p97 precursor), 6x his tag (human, UniProt P08582 20-710); experiment: SPR, Biacore 2000, 25 C; p97 immobilised on CM5 chip, scFv fusion injected; 1:1 model
T2 construct: range 20-710; also called p97 melanotransferrin; recombinant p97; not shown: 6x his tag from vector pSecTag2
T2 sequence: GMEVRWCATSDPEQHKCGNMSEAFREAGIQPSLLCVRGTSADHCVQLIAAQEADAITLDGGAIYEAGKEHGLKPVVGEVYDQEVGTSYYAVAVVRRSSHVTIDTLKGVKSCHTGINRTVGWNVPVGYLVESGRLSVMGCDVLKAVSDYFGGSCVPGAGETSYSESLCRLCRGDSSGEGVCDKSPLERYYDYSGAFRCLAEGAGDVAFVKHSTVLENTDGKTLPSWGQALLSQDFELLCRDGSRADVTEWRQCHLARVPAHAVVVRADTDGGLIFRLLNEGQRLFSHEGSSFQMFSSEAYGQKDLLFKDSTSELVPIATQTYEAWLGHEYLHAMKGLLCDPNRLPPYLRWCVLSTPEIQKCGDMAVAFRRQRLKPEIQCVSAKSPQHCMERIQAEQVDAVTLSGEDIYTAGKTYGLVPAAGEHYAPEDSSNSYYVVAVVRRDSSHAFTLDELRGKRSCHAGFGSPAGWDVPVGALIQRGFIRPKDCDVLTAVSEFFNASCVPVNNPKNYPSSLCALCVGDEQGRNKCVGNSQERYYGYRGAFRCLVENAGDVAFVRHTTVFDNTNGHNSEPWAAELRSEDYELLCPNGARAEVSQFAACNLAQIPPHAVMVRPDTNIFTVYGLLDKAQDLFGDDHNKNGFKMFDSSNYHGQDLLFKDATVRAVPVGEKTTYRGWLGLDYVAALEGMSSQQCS

[3] = target: T2, soluble p97 (amino acids 20-710 of …); experiment: SEC binding assay with purified p97 (discussion of the example)

B1: reverse orientation triple mutant FP999 (K H39 Q, F H82B S, N H91 Y, bL-L49-sFv orientation) (scFv)
chain: TPVSEKQLAEVVANTITPLMKAQSVPGMAVAVIYQGKPHYYTFGKADIAANKPVTPQTLFELGSISKTFTGVLGGDAIARGEISLDDAVTRYWPQLTGKQWQGIRMLDLATYTAGGLPLQVPDEVTDNASLLRFYQNWQPQWKPGTTRLYANASIGLFGALAVKPSGMPYEQAMTTRVLKPLKLDHTWINVPKAEEAHYAWGYRDGKAVRVSPGMLDAQAYGVKTNVQDMANWVMANMAPENVADASLKQGIALAQSRYWRIGSMYQGLGWEMLNWPVEANTVVETSFGNVALAPLPVAEVNPPAPPVKASWVHKTGSTGGFGSYVAFIPEKQIGIVMLANTSYPNPARVEAAYHILEALQMHGTKLMEVQLQESGPSLVKPSQTLSLTCSVTGDSITSGYWNWIRQFPGNKLEYMGYISDSGITYYNPSLKSRISITRDTSKNQYYLQLNSVTAEDTATYYCARRTLATYYAMDYWGQGTSVTVSSGSTSGSGKPGSGEGSTKGDFVMTQTPLSLPVSLGDQASISCRASQSLVHSNGNTYLHWYLQKPGQSPKLLIYRVSNRFSGVPDRFSGSGSGTDFTLKISRVEAEDLGVYFCSQSTHVPPTFGGGTKLEIKR
notes: also called bL-L49-scFv
B1 was tested, and the “IC50 of prodrug C-Mel on H3677 melanoma cells pre-treated with 10 nM fusion protein, unbound material washed off; cell viability by alamarBlue” value [1] was 5000 nM, the Kd [2] was 1.71 nM and the koff [2] was 0.000575 s⁻¹. The kon [2] was 337000 M⁻¹ s⁻¹.

B2: L49-sFv-bL triple mutant FP990 (K H39 Q, F H82B S, N H91 Y) (scFv)
scFv: MEVQLQESGPSLVKPSQTLSLTCSVTGDSITSGYWNWIRQFPGNKLEYMGYISDSGITYYNPSLKSRISITRDTSKNQYYLQLNSVTAEDTATYYCARRTLATYYAMDYWGQGTSVTVSSGSTSGSGKPGSGEGSTKGDFVMTQTPLSLPVSLGDQASISCRASQSLVHSNGNTYLHWYLQKPGQSPKLLIYRVSNRFSGVPDRFSGSGSGTDFTLKISRVEAEDLGVYFCSQSTHVPPTFGGGTKLEIKRTPVSEKQLAEVVANTITPLMKAQSVPGMAVAVIYQGKPHYYTFGKADIAANKPVTPQTLFELGSISKTFTGVLGGDAIARGEISLDDAVTRYWPQLTGKQWQGIRMLDLATYTAGGLPLQVPDEVTDNASLLRFYQNWQPQWKPGTTRLYANASIGLFGALAVKPSGMPYEQAMTTRVLKPLKLDHTWINVPKAEEAHYAWGYRDGKAVRVSPGMLDAQAYGVKTNVQDMANWVMANMAPENVADASLKQGIALAQSRYWRIGSMYQGLGWEMLNWPVEANTVVETSFGNVALAPLPVAEVNPPAPPVKASWVHKTGSTGGFGSYVAFIPEKQIGIVMLANTSYPNPARVEAAYHILEALQ
For B2, the “IC50 of prodrug C-Mel on H3677 melanoma cells pre-treated with 10 nM fusion protein, unbound material washed off; cell viability by alamarBlue” value [1] was 5000 nM, the Kd [2] was 1.75 nM and the koff [2] was 0.000782 s⁻¹. For the same binder, the kon [2] was 448000 M⁻¹ s⁻¹ and the “percent of purified protein bound to antigen” value [3] was 100%.
